# Data published in patent US20240043504A1 (published 2024).
# Where a chain is given by its changes, count along the chain named.
# T1: MERS-CoV (NCoV/Novel coronavirus) Spike Protein S1 Protein (aa 1-725, His Tag) (Sino 40069-V08B1) (MERS-CoV, UniProt K9N5Q8 18-725)
# T1 sequence: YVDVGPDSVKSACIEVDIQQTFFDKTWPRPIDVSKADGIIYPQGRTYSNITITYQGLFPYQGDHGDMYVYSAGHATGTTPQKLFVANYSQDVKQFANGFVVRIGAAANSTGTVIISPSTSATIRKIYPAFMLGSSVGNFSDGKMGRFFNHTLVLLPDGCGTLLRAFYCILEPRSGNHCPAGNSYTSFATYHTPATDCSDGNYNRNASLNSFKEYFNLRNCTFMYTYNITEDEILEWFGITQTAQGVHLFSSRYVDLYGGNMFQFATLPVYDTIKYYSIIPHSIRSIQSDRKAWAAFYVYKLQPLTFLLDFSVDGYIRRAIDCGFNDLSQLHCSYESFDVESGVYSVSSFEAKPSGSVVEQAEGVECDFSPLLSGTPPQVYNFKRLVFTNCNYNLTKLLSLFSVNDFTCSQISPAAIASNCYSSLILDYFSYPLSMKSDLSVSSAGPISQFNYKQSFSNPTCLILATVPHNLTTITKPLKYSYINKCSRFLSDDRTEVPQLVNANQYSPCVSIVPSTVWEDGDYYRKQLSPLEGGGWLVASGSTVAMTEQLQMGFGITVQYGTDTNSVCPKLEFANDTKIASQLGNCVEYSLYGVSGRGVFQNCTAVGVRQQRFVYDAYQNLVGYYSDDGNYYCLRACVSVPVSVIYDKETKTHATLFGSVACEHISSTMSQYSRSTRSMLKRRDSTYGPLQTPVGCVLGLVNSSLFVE
# T2: MERS-CoV Spike Protein S2 (aa 726-1296, His Tag) (Sino 40070-[change]) (MERS-CoV, UniProt K9N5Q8 726-1296)
# T2 sequence: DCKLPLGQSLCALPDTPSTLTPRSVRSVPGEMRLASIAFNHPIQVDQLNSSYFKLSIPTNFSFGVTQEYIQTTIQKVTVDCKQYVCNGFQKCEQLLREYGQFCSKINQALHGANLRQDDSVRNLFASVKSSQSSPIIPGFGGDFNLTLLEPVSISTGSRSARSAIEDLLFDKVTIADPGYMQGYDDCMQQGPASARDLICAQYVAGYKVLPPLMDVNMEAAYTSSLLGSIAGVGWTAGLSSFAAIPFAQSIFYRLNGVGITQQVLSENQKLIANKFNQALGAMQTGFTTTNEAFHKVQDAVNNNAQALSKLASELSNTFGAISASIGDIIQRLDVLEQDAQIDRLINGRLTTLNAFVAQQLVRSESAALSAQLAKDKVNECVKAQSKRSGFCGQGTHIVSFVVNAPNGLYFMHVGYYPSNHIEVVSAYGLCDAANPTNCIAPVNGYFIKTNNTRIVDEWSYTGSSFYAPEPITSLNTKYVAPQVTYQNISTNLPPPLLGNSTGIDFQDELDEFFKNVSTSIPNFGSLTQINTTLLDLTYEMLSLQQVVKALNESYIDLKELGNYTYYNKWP
# T3: MERS-CoV (NCoV/Novel coronavirus) Spike Protein fragment (RBD, aa 367-606, His Tag) (Sino 40071-V08B1) (MERS-CoV, UniProt K9N5Q8 367-606)
# T3 sequence: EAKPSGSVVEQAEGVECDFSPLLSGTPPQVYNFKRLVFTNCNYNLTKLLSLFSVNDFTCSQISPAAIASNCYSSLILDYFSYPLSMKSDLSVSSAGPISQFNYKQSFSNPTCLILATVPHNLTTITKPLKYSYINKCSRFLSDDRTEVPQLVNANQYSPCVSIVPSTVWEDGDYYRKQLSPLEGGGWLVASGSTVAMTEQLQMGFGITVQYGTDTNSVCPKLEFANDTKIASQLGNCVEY
# T4: MERS-CoV Spike Protein (ECD, aa 1-1297, His Tag) (Sino 40069-[change]) (MERS-CoV, UniProt K9N5Q8 18-1297)
# T4 sequence: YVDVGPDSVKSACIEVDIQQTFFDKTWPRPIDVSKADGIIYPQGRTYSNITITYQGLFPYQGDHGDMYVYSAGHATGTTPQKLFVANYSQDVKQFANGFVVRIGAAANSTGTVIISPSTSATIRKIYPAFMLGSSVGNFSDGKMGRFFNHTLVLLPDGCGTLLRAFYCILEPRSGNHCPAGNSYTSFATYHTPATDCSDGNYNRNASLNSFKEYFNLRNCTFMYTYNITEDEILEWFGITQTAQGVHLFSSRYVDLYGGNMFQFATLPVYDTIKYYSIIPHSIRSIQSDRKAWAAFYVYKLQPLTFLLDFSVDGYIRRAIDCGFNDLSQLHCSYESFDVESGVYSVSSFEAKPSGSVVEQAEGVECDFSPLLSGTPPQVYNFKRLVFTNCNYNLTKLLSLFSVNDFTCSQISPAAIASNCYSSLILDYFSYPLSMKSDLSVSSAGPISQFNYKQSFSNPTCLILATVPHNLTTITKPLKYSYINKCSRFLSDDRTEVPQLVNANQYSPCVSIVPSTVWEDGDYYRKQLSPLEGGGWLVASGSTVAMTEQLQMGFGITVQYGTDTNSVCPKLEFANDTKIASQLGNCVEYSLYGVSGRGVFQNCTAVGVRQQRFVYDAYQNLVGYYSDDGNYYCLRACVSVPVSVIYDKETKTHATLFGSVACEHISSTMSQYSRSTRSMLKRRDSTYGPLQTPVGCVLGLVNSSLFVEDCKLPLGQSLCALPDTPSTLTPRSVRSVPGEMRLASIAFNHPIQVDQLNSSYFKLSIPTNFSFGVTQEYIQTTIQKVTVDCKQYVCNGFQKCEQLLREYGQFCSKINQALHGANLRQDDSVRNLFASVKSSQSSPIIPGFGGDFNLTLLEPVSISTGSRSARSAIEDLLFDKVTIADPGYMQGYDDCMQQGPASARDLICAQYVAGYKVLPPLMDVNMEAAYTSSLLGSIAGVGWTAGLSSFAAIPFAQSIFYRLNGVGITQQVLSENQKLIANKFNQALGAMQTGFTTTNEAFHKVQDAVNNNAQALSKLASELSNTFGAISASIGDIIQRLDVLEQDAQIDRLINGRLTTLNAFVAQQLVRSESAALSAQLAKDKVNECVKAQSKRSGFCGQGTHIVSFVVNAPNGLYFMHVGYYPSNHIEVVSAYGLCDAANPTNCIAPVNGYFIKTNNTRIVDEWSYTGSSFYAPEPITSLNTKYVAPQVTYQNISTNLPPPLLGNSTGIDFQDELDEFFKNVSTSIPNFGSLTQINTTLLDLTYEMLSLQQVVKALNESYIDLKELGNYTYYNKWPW
# B1: mAb10934 (antibody, V domains shown)
# VH: not shown
# VL: DIQMTQSPSSLSASVGDRVTITCQASQDIWNYINWYQQKPGKAPKLLIYDASNLKTGVPSRFSGSGSGTDFTFTISSLQPEDIATYYCQQHDDLPPTFGQGTKVEIKR
# B2: mAb10986 (antibody, V domains shown)
# VH: EVQLVESGGGLVQPGGSLRLSCAASEFTVSSNYMSWVRQAPGKGLEWVSVIYSGGSTFYADSVKGRFTISRDNSKNTLYLQMNSLRAEDTAVYYCARALPYGDLHFDYWGQGTLVTVSS
# VL: QSVLTQPPSVSGAPGQRVTISCTGSSSNIGTGYDVHWYQQLPGTAPKLLIYGNTNRPSGVPDRFSGSKSGTSASLAITGLQAEDEADYYCQSYDSSLSDSYVFGTGTKVTVLG
# B3: mAb10935 (antibody, V domains shown)
# VH: EVQLVESGGGLVQPGGSLRLSCAASGFTVSSNYMSWVRQAPGKGLEWVSLIYSGGSTYYADSVKGRFTISRHNSKNTLYLQMNSLRSEDTAVYYCARVPLGDYYYGMDVWGQGTTVTVSS
# VL: B1 VL with W30N, N31K, I33L, K55E, H91S, D93N, P96L, Q100G
# B4: mAb10921 (antibody, V domains shown)
# VH: EVQLVESGGGLVQPGGSLRLSCAASGITVSSNYMSWVRQAPGKGLEWVSVIYSGGSTFYADSVKGRFTISRHNSKNTLYLQMNSLRAEDTAVYYCARERNFDAFDIWGQGTMVTVSS
# VL: DIQMTQSPSSVSASVGDRVTITCRASQGISSWLAWYQQKPGKAPKLLIYAASSLQSGVPSRFSGSGSGTDFTLTISSLQPEDFATYYCQQANSFPLFTFGPGTKVDIKR
# B5: mAb10915 (antibody, V domains shown)
# VH: EVQLVESGGGLVQPGGSLRLSCAASGFTVSSNYMNWVRQAPGKGLEWVSVIYSGGSTFYADSVKGRFTISRHNSKNTLYLQMNSLRPEDTAVYYCARDLGGYFDYWGQGTLVTVSS
# VL: not shown
# B6: mAb10954 (antibody, V domains shown)
# VH: EVQLVESGGGLVQPGGSLRLSCAASGITVSSNYMSWVRQAPGKGLEWVSLIYSGGSTYYADSVKGRFTISRDNSKNTLYLQMNSLRVEDTAVYYCARDHGMAAAGYNYWGQGTLVTVSS
# VL: B1 VL with W30N, N31K, I33L, K55E, S76N, I83F, Y87F, H91Y, D93N, T97A
# B7: mAb10955 (antibody, V domains shown)
# VH: EVQLVESGGGLVQPGGSLRVSCAASGFTVSRNYMSWVRQAPGKGLEWVSVIYSGGSTFYADSVKGRFTISRDNSKNTLYLQMNSLRAEDTAIYYCARYIPRFDPWGQGTLVTVSS
# VL: B1 VL with W30S, I33L, Y36F, K42R, K55E, H91Y, D93N, P96I, K103R, V104L
# B8: mAb10982 (antibody, V domains shown)
# VH: EVQLVESGGGLVQPGGSLRLSCAASGLTVSSNYMSWVRQAPGKGLEWVSVIYSGGTTYYADSVKGRFTISRHNSKNTLSLQMNSLRAEDTAVYYCARGEGANYYGMDVWGQGTTVTVSS
# VL: B2 VL with T54S, D99G, S100Y, Y101V, T105G, V109L
# B9: mAb10957 (antibody, V domains shown)
# VH: EVQLVESGGGLVQPGGSLRLSCAASGVTVSSNYMSWVRQAPGKGLEWVSVIYSGGSTFYADSVKGRFTISRDNSKNTLFLQMNSLRIEDTAVYYCARDLGPYGMDVWGQGTTVTVSS
# VL: B4 VL with M4L, S10F, V11L, W32Y, S53T, D70Q, T72I, A91L, F94Y, L96G
# B10: mAb10956 (antibody, V domains shown)
# VH: B9 VH with V27L, F79Y, I87A, G100I, P101K
# VL: not shown
# B11: mAb10933 (antibody, V domains shown)
# VH: QVQLVESGGGLVKPGGSLRLSCAASGFTFSDYYMSWIRQAPGKGLEWVSYITYSGSTIYYADSVKGRFTISRDNAKSSLYLQMNSLRAEDTAVYYCARDRGTTMVPFDYWGQGTLVTVSS
# VL: B1 VL with W30T, I33L, D50A, K55E, S77G, H91Y, D93N, P96L, Q100G
# Target: T1, MERS-CoV (NCoV/Novel coronavirus) Spike …
# Assay: Luminex, supernatant
row,Binder,MFI [MFI]
1,B1,20
2,B2,20

# Target: T2, MERS-CoV Spike Protein S2 (aa 726-1296, …)
# Assay: Luminex, supernatant
row,Binder,MFI [MFI]
1,B3,18
2,B2,19
3,B4,19

# Target: T3, MERS-CoV (NCoV/Novel coronavirus) Spike …
# Assay: Luminex, supernatant
row,Binder,MFI [MFI]
1,B1,24
2,B3,25
3,B2,27
4,B4,23

# Target: SARS-CoV-2 Spike Protein (RBD)(R319-F541).mFc (SARS-CoV-2)
# Assay: Luminex, supernatant
row,Binder,MFI [MFI]
1,B5,31800
2,B1,34300
3,B6,31300
4,B3,35900
5,B7,30800
6,B2,28400
7,B8,23300
8,B4,19400
9,B9,18700
10,B10,28300

# Target: T4, MERS-CoV Spike Protein (ECD, aa 1-1297, …)
# Assay: Luminex, supernatant
row,Binder,MFI [MFI]
1,B1,15
2,B3,15
3,B2,15
4,B4,19

# Target: SARS-CoV-2 Spike Protein (RBD)(R319-F541).hFc (SARS-CoV-2)
# Assay: Luminex, supernatant
row,Binder,MFI [MFI]
1,B5,32400
2,B1,35800
3,B6,31800
4,B3,35600
5,B7,31200
6,B8,23000
7,B4,22300
8,B9,22600
9,B10,30200

# Target: Human SARS Coronavirus Spike S1 Subunit Protein (His Tag) (Sino 40150-V08B1) (Human SARS Coronavirus, UniProt P59594 14-667)
# Assay: Luminex, supernatant
row,Binder,MFI [MFI]
1,B5,21
2,B3,21
3,B11,18
4,B2,21
5,B8,24
6,B4,19
